This is an account of results in patent publication US20150087581A1 (AURIGENE DISCOVERY TECHNOLOGIES, published 2015).

Bridges are numbered along the chain shown (N, C = ends). Where no end group is shown, it is not given here. [ ]: non-standard residue; d: D form. The star is where a group is joined. Biotin = O=C1N[C@H]2[C@H](CS[C@H]2CCCCC(=O)*)N1; Palmitoyl = CCCCCCCCCCCCCCCC(=O)*; SNTSESF = not defined here; Ahx = NCCCCCC(=O)O

In assay [1] the target is hPDL1 expressed on MDA-MB231 cells (human, UniProt Q9NZQ7 19-290). Kind of assay: cell-based or functional assay.
Assay [2] concerns the target T1, recombinant hPDL-2 overexpressed on HEK 293 cells (human, UniProt Q9BQ51 20-273).
T1 chain: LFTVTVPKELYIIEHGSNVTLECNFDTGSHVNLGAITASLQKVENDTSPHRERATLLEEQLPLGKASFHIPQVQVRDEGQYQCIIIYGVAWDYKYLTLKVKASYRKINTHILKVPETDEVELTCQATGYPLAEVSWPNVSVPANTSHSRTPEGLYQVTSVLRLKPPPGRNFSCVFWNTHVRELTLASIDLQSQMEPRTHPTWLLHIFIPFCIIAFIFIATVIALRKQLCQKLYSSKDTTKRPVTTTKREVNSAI
The assay can be described thus: flow cytometry, inhibition of soluble PD1-Fc binding to hPDL2-expressing HEK293 cells.

Sequence of hPDL1 expressed on MDA-MB231 cells (Q9NZQ7 19-290): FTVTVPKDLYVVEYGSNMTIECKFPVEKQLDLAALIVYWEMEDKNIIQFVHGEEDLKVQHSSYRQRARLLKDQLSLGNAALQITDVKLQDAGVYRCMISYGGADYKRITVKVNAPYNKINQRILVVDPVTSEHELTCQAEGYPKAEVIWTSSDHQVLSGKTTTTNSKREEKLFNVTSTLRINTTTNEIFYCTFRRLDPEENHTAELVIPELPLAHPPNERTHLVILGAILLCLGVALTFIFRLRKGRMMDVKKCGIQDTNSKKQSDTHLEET

B1: Compound 60 (peptide)
peptide: {Biotin-Ahx}-[dS][dN][dT][dS][dE][dS][dF][dK][dF][dR][dV][dT][dQ][dL][dA][dP][dK][dA][dQ][dI][dK][dE]-NH2
modifications: not fully specified (residue 8); printed as Biotin-Ahx-sntsesfk(sntsesf)frvtqlapkaqike-NH2
Consider B1, for which the “Percent rescue (100 nM, compared with 100 nM Comp 8) in mouse splenocyte proliferation CFSE based assay” value (“Percent rescue” below) in assay [1] came out at 14.9%.

B2: Compound 91 (peptide)
peptide: SNWSEDLKFQIIQLHPK(MPA‑NH‑CH2‑CH2‑O‑CH2‑CH2‑O‑CO)AKIEE-NH2
modifications: not fully specified (residue 8)
In the case of B2, the “Percent rescue” value in assay [1] is 69.4%.

B3: Compound 7 (peptide)
peptide: FRVTQKFRVTQLAPKAQIKE-NH2
modifications: not fully specified (residue 6)
On to B3, for which the “Percent rescue” value in assay [1] is 61.5%.

B4: Compound 84 (peptide)
peptide: SNTSESFKFRVTQLAPKAQIKE-NH2
modifications: not fully specified (residue 8)
Consider B4, for which, in assay [1], the “Percent rescue” value turned out to be 80.5%.

B5: Compound 64 (peptide)
peptide: SNTSESFK(SNTSESF)FRVTELAPKAQIKE-NH2
modifications: lactam 13-17; reading uncertain
Turning to B5, the “Percent rescue” value in assay [1] turned out to be 69.1%.

B6: Compound 61 (peptide)
peptide: {Biotin-Ahx}-EKIQAKPAYWNLVKDTQNS-NH2
modifications: not fully specified (residue 14)
For the molecule B6, the “Percent rescue” value in assay [1] is 67%.

B7: Compound 8 (peptide)
peptide: SNTSESFKFRVTQLAPKAQIKE-NH2
modifications: not fully specified (residue 8)
With B7, the EC50 in assay [2] turned out to be 0.722 nM.

B8: Compound 69 (peptide)
peptide: SNWSEDLK(SNWSEDL)FQIIQLHPKAKIEE-NH2
On to B8, for which the “Percent rescue” value in assay [1] worked out at 48%.

B9: Compound 82 (peptide)
peptide: SNWSEDLK(SNWSEDL)FQIIQLHPK(Palmitoyl)AKIEE-NH2
On to B9, for which, in assay [1], the “Percent rescue” value amounted to 58.3%.

B10: Compound 10 (peptide)
peptide: SNQTDKVLNWYRMLAPKAQIKE-NH2
modifications: not fully specified (residue 6); printed as SNQTDK (SNQTDK) VLNWYRM LAPKAQIKE-NH2
Turning to B10, in assay [1], the “Percent rescue” value turned out to be 10.6%.

B11: Compound 62 (peptide)
peptide: SNTSESFK(SNTSESF)FRVTQLAPEAQIKE-NH2
modifications: lactam 17-21; reading uncertain
For B11, the “Percent rescue” value in assay [1] turned out to be 37%.

B12: Compound 63 (peptide)
peptide: SNTSESFK(SNTSESF)FKVTQEAPKAQIKE-NH2
modifications: lactam 10-14; reading uncertain
Turning to B12, the “Percent rescue” value in assay [1] stood at 68%.

B13: Compound 9 (peptide)
peptide: SNQTDKFRVTQLAPKAQIKE-NH2
modifications: not fully specified (residue 6); printed as SNQTDK (SNQTDK) FRVTQ LAPKAQIKE-NH2
Take B13: the “Percent rescue” value in assay [1] was 11.3%.
